# Laboratory results published in patent US20220177587A1, “METHODS AND USES OF VARIANT CD80 FUSION PROTEINS AND RELATED CONSTRUCTS” (Alpine Immune Sciences, Inc., priority 2018, published 2022).
# Residue numbers refer to the chain shown, from its start. Numbers in names are those of the source. Where “and” joins values, the source holds several entries; their conditions need not be identical. Equal values may be shown once.
# B1: A91G/F92L/F108L/1118V/T120S (protein)
# chain: VIHVTKEVKEVATLSCGHNVSVEELAQTRIYWQKEKKMVLTMMSGDMNIWPEYKNRTIFDITNNLSIVILALRPSDEGTYECVVLKYEKDGLKREHLAEVTLSVKADLPTPSISDFEVPSSNIRRIICSTSGGFPEPHLSWLENGEELNAINTTVSQDPETELYAVSSKLDFNMTTNHSFMCLIKYGHLRVNQTFNWNTTKQEHFPDN
# B2: E88D/K89R/D90K/A91G/F92Y/K93R/N122S/N177S (protein)
# chain: B1 chain with E88D, K89R, D90K, L92Y, K93R, L108F, V118I, S120T, N122S, N177S
# B3: R29V/M43Q/E81R/L85I/K89R/D90L/A91E/F92N/K93Q/R94G (protein)
# chain: VIHVTKEVKEVATLSCGHNVSVEELAQTVIYWQKEKKMVLTMQSGDMNIWPEYKNRTIFDITNNLSIVILALRPSDEGTYRCVVIKYERLENQGEHLAEVTLSVKADFPTPSISDFEIPTSNIRRIICSTSGGFPEPHLSWLENGEELNAINTTVSQDPETELYAVSSKLDFNMTTNHSFMCLIKYGHLRVNQTFNWNTTKQEHFPDN
# B4: K36G/K37Q/M38I/L40M/F59L/E81V/L85R/K89N/A91T/F92P/K93V/R94L/E99G/T130A/N149S (protein)
# chain: VIHVTKEVKEVATLSCGHNVSVEELAQTRIYWQKEGQIVMTMMSGDMNIWPEYKNRTILDITNNLSIVILALRPSDEGTYVCVVRKYENDTPVLEHLAGVTLSVKADFPTPSISDFEIPTSNIRRIICSASGGFPEPHLSWLENGEELSAINTTVSQDPETELYAVSSKLDFNMTTNHSFMCLIKYGHLRVNQTFNWNTTKQEHFPDN
# B5: R29D/Y31L/Q33H/K36G/M38I/T41A/M43R/M47T/E81V/L85R/K89N/A91T/F92P/K93V/R94L/I118T/N149S (protein)
# chain: VIHVTKEVKEVATLSCGHNVSVEELAQTDILWHKEGKIVLAMRSGDTNIWPEYKNRTIFDITNNLSIVILALRPSDEGTYVCVVRKYENDTPVLEHLAEVTLSVKADFPTPSISDFETPTSNIRRIICSTSGGFPEPHLSWLENGEELSAINTTVSQDPETELYAVSSKLDFNMTTNHSFMCLIKYGHLRVNQTFNWNTTKQEHFPDN
# B6: R29D/Y31L/Q33H/K36G/M38I/T41A/M43R/M47T/E81V/L85R/K89N/A91T/F92P/K93V/R94L/N149S (protein)
# chain: B5 chain with T118I
# B7: E24G/R29D/Y31L/Q33H/K36G/M38I/T41A/M43R/M47T/F59L/E81V/L85R/K89N/A91T/F92P/K93V/R94L/H96R/N149S/C182S (protein)
# chain: B5 chain with E24G, F59L, H96R, T118I, C182S
# B8: R29D/Y31L/Q33H/K36G/M38I/T41A/M43R/M47T/E81V/L85R/K89N/A91T/F92P/K93V/R94L/N144S/N149S (protein)
# chain: B5 chain with T118I, N144S
# B9: R29D/Y31L/Q33H/K36G/M38I/T41A/M42T/M43R/M47T/E81V/L85R/K89N/A91T/F92P/K93V/R94L/L148S/N149S (protein)
# chain: B5 chain with M42T, T118I, L148S
# B10: K36G/K37Q/M38I/L40M (protein)
# chain: B1 chain with K36G, K37Q, M38I, L40M, G91A, L92F, L108F, V118I, S120T
# modifications: CD80 v49 ECD
# B11: K36G/L40M (protein)
# chain: B1 chain with K36G, L40M, G91A, L92F, L108F, V118I, S120T
# B12: T41I/A91G (protein)
# chain: B1 chain with T41I, L92F, L108F, V118I, S120T
# modifications: CD80 v44 ECD
# B13: E88D/K89R/D90K/A91G/F92Y/K93R (protein)
# chain: VIHVTKEVKEVATLSCGHNVSVEELAQTRIYWQKEKKMVLTMMSGDMNIWPEYKNRTIFDITNNLSIVILALRPSDEGTYECVVLKYDRKGYRREHLAEVTLSVKAD
# modifications: CD80 v48 IgV
# B14: Q33L/E35D/M47L/A71G/F925 (protein)
# chain: VIHVTKEVKEVATLSCGHNVSVEELAQTRIYWLKDKKMVLTMMSGDLNIWPEYKNRTIFDITNNLSIVILGLRPSDEGTYECVVLKYEKDASKREHLAEVTLSVKADEPKSSDKTHTCPPCPAPEAEGAPSVFLFPPKPKDTLMISRTPEVTCVVVDVSHEDPEVKFNWYVDGVEVHNAKTKPREEQYNSTYRVVSVLTVLHQDWLNGKEYKCKVSNKALPAPIEKTISKAKGQPREPQVYTLPPSREEMTKNQVSLTCLVKGFYPSDIAVEWESNGQPENNYKTTPPVLDSDGSFFLYSKLTVDKSRWQQGNVFSCSVMHEALHNHYTQKSLSLSPG
# B15: H18Y/E35DN68M/L97Q (protein)
# chain: B14 chain with H18Y, L33Q, L47M, V68M, G71A, S92F, L97Q
# B16: V22D/E35D/M47L/L70M/L97Q (protein)
# chain: B1 chain with V22D, E35D, M47L, L70M, G91A, L92F, L97Q, L108F, V118T, S120T
# modifications: CD80 v283 ECD
# B17: H18Y/E35D/N48K (protein, UniProt P33681 35-288, looked up, variant H18Y E35D N48K)
# T-lymphocyte activation …: VIHVTKEVKEVATLSCGYNVSVEELAQTRIYWQKDKKMVLTMMSGDMKIWPEYKNRTIFDITNNLSIVILALRPSDEGTYECVVLKYEKDAFKREHLAEVTLSVKADFPTPSISDFEIPTSNIRRIICSTSGGFPEPHLSWLENGEELNAINTTVSQDPETELYAVSSKLDFNMTTNHSFMCLIKYGHLRVNQTFNWNTTKQEHFPDNLLPSWAITLISVNGIFVICCLTYCFAPRCRERRRNERLRRESVRPV
# B18: E35D/T41S/M47V/A71G/K89N (protein, UniProt P33681 35-288, looked up, variant E35D T41S M47V A71G K89N)
# T-lymphocyte activation …: B17 T-lymphocyte activation … with Y18H, T41S, M47V, K48N, A71G, K89N
# B19: E35D/M47V/N48T/L85Q (protein, UniProt P33681 35-288, looked up, variant E35D M47V N48T L85Q)
# T-lymphocyte activation …: B17 T-lymphocyte activation … with Y18H, M47V, K48T, L85Q
# B20: Q27H/E35D/D46V/M47L/A71G (protein, UniProt P33681 35-288, looked up, variant Q27H E35D D46V M47L A71G)
# T-lymphocyte activation …: B17 T-lymphocyte activation … with Y18H, Q27H, D46V, M47L, K48N, A71G
# B21: E35D/D46E/M47V/A71D (protein, UniProt P33681 35-288, looked up, variant E35D D46E M47V A71D)
# T-lymphocyte activation …: B17 T-lymphocyte activation … with Y18H, D46E, M47V, K48N, A71D
# Test system: allogeneic CD4+ T cells
# Test: Mixed Lymphocyte Reaction (MLR), IFN-gamma
# Format: cell-based, human
# Details: Table E32; variant ECD-Fc in MLR assay; culture supernatant
# Experimental: Soluble rCD80.Fc bioactivity was tested in a human Mixed Lymphocyte Reaction (MLR). Human primary dendritic cells (DC) were generated by culturing monocytes isolated from PBMC (BenTech Bio, USA) in vitro for 7 days with 500U/ml rIL-4 (R&D Systems, USA) and 250 U/ml rGM-CSF (R&D Systems, USA) in Ex-Vivo 15 media (Lonza, Switzerland). 10,000 matured DC and 100,000 purified allogeneic CD4+ T cells (BenTech Bio, USA) were co-cultured with variant CD80 Fc fusion proteins and controls in 96 well round bottom plates in 200 μl final volume of Ex-Vivo 15 media. On day 5, IFN-gamma secretion in culture supernatants was analyzed using the Human IFN-gamma Duoset ELISA kit (R&D Systems, USA). Optical density was measured by VMax ELISA Microplate Reader (Molecular Devices, USA) and quantitated against titrated rIFN-gamma standard included in the IFN-gamma Duo-set kit (R&D Systems, USA).
row,Molecule,MLR IFN-gamma levels [pg/mL]
1,B1,665

# Same assay, conditions: Table E33; culture supernatant
row,Molecule,MLR IFN-gamma levels
1,B2,6345 pg/mL
2,B3,11695 pg/mL
3,B4,3095 pg/mL
4,B5,5028 pg/mL
5,B6,24029 pg/mL
6,B7,13146 pg/mL
7,B8,7943 pg/mL
8,B9,17387 pg/mL
9,B10,811 pg/mL
10,B11,30558 pg/mL
11,B12,26052 pg/mL
12,B13,9356 pg/mL and 5922 pg/mL

# Test system: human pan T cells
# Test: Anti-CD3 coimmobilization assay, IFN-gamma
# Format: cell-based
# Details: Table E32; variant ECD-Fc coimmobilized with anti-CD3; culture supernatant
# Procedure, shortened: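 IFN-gamma in 3-day culture supernatants, quantified by ELISA, reflects costimulation. Human pan T cells or BC3 clone (100,000/well, Ex-Vivo 15) were placed on wells pre-adsorbed overnight with rCD80.Fc variants (1–80 nM) together with anti-CD3 OKT3 (1 nM or 4 nM), unbound protein removed.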
row,Molecule,Coimmobilization with anti CD3 IFN-gamma [pg/mL]
1,B1,59

# Same assay, conditions: Table E33; culture supernatant, 3 days
row,Molecule,Coimmobilization with anti-CD3 IFN-gamma
1,B2,773 pg/mL
2,B3,342 pg/mL
3,B4,507 pg/mL
4,B5,387 pg/mL
5,B6,405 pg/mL
6,B7,406 pg/mL
7,B8,400 pg/mL
8,B9,464 pg/mL
9,B10,427 pg/mL
10,B11,699 pg/mL
11,B12,433 pg/mL
12,B13,1125 pg/mL and 944 pg/mL

# Biological target: CD28 (Homo sapiens, UniProt P10747)
# Test: Jurkat/IL2 + K562/OKT3/PD-L1 reporter assay
# Format: cell-based
# Set-up: host or cells: Jurkat cells expressing an IL-2-luciferase reporter
# Details: Table E7; K562/OKT3/PD-L1 aAPC; 50 nM
Fold Increase over WT CD80-IgV-Fc,"Relative Luciferase Units (RLU), CD80-Fc Conc. 50 nM [RLU]",Molecule
0.7,394,B14
7.7,4336,B15

# Same assay, conditions: Table E8; K562/OKT3/PD-L1 aAPC; 50 nM
"Relative Luciferase Units (RLU), CD80-Fe Cone 50 nM [RLU]",Fold Increase over WT CD80-IgV-Fe,Molecule
1542,,B16
1230,,B17
1023,,B18
897,4.4,B19
978,,B20
683,,B21
